Laboratory results taken from patent US20100150950A1, “HUMAN ANTIBODIES THAT BIND CD70 AND USES THEREOF” (Medarex, Inc., priority 2006, published 2010).
Positions count from the first letter of the chain named.

Experiments:
[1] = target: T1, CD70 (Homo sapiens, UniProt P32970); experiment: Epitope binding experiments using BIAcore
T1 sequence (P32970 1-193): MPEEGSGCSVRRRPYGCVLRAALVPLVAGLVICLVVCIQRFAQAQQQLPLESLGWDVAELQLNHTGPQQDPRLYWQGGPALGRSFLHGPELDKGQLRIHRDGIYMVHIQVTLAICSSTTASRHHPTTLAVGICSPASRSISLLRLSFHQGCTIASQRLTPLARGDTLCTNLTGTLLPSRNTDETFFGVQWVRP
Procedure: Such cross-competing antibodies can be identified based on their ability to cross-compete with 2H5, 10B4, 8B5, 18E7, 69A7, 69A7Y or 1F4 in standard CD70 binding assays. For example, standard ELISA assays can be used in which a recombinant human CD70 protein is immobilized on the plate, one of the antibodies is fluorescently labeled and the ability of non-labeled antibodies to compete off the binding of the labeled antibody is evaluated. Additionally or alternatively, BIAcore analysis can be used to assess the ability of the antibodies to cross-compete.

[2] = system: MEC-1 cells; experiment: ADCC fluorescence cytotoxicity assay, MEC-1; assay type: cell-based, human; conditions: target to effector ratio 1:50
Procedure: (§1) In this example, a defucosylated and non-defucosylated anti-CD70 monoclonal antibody was tested for the ability to kill CD70+cells in the presence of effector cells via antibody dependent cellular cytotoxicity (ADCC) in a fluorescence cytotoxicity assay
(§2) Human Anti-CD70 monoclonal antibody 2H5 was defucosylated as described above. Human effector cells were prepared from whole blood as follows. Human peripheral blood mononuclear cells were purified from heparinized whole blood by standard Ficoll-paque separation. The cells were resuspended in RPMI1640 media containing 10% FBS (culture media) and 200 U/ml of human IL-2 and incubated overnight at 37° C. The following day, the cells were collected and washed once in culture media and resuspended at 2×10^7 cells/ml. […]
(§3) The CD70+ cell lines ARH-77 (human B lymphoblast leukemia; ATCC Accession No. CRL-1621), MEC-1 (human chronic B cell leukemia; DSMZ Accession No. ACC 497), SU-DHL-6 (human B cell lymphoma, DSMZ Accession No. Acc572), IM-9 (human B lymphoblast; ATCC Accession No. CCL-159) and HuT 78 (human cutaneous lymphocyte lymphoma; ATCC Accession No. TIB-161), were tested for antibody specific ADCC to the defucosylated and non-defucosylated human anti-CD70 monoclonal antibody 2H5 using the Delfia fluorescence emission analysis as follows. […]

[3] = system: HuT 78 cells; experiment: ADCC fluorescence cytotoxicity assay, HuT 78; assay type: cell-based, human; conditions: target to effector ratio 1:50
Procedure: (§4) In this example, anti-CD70 monoclonal antibodies were tested for the ability to kill CD70+ cell lines in the presence of effector cells via antibody dependent cellular cytotoxicity (ADCC) in a fluorescence cytotoxicity assay.
as §2, with “Human” for “Human Anti-CD70 monoclonal antibody 2H5 was defucosylated as described above. Human”, “FBS” for “FBS (culture media)”, “four times” for “once”
(§5) The CD70+ cell lines ARH-77 (human B lymphoblast leukemia; ATCC Accession No. CRL-1621), HuT 78 (human cutaneous lymphocyte lymphoma; ATCC Accession No. TIB-161), Raji (human B lymphocyte Burkitt's lymphoma; ATCC Accession No. CCL-86) and a negative control cell line L540 (human Hodgkin's lymphoma; DSMZ Deposit No. ACC 72) were tested for antibody specific ADCC to the human anti-CD70 monoclonal antibodies using the Delfia fluorescence emission analysis as follows. […]
(§6) In this example, a defucosylated and non-defucosylated anti-CD70 monoclonal antibody was tested for the ability to kill CD70+cells in the presence of effector cells via antibody dependent cellular cytotoxicity (ADCC) in a fluorescence cytotoxicity assay […]

[4] = system: IM-9 cells; experiment: ADCC fluorescence cytotoxicity assay, IM-9; assay type: cell-based, human; conditions: target to effector ratio 1:50
Procedure: as §1, §2, §3

[5] = system: ARH-77 cells; experiment: ADCC fluorescence cytotoxicity assay, ARH-77; assay type: cell-based, human; conditions: target to effector ratio 1:50
Procedure: as §4
as §2, with “Human” for “Human Anti-CD70 monoclonal antibody 2H5 was defucosylated as described above. Human”, “FBS” for “FBS (culture media)”, “four times” for “once”
as §5, §6

B1: anti-CD70 human monoclonal antibody 69A7 (antibody, V domains shown)
VH: QVQLQESGPGLVKPSETLSLTCTVSGGSVSSDYYYWSWIRQPPGKGLEWLGYIYYSGSTNYNPSLKSRVTISVDTSKNQFSLKLRSVTTADTAVYYCARGDGDYGGNCFDYWGQGTLVTVSS
VL: EIVLTQSPATLSLSPGERATLSCRASQSVSSYLAWYQQKPGQAPRLLIFDASNRATGIPARFSGSGSGTDFTLTISSLEPEDFAVYYCQQRSNWPLTFGGGTKVEIK
notes: Human IgG from hybridoma; also called HuMAb 69A7; FITC-conjugated 69A7
- epitope on CD70 [1]: distinct epitopes

B2: 2H5 NF: 2H5 HuMAb lacking fucosyl residues, expressed in CHO cell line Ms704-PF (antibody, V domains shown)
VH: QVQLVESGGGVVQPGRSLRLSCAASGFTFSSYIMHWVRQAPGKGLEWVAVISYDGRNKYYADSVKGRFTISRDNSKNTLYLQMNSLRAEDTAVYYCARDTDGYDFDYWGQGTLVTVSS
VL: B1 VL with F49Y, S92T
- ADCC, % specific lysis of MEC-1 [2]: increased percentage of specific lysis
- ADCC, % lysis of HuT 78 [3]: increased percentage of specific lysis
- ADCC, % specific lysis of IM-9 [4]: increased percentage of specific lysis
- ADCC, % lysis of ARH-77 [5]: increased percentage of specific lysis
